Results taken from publication PMC11098434, “The effect of TG2-inhibitory monoclonal antibody zampilimab on tissue fibrosis in human in vitro and primate in vivo models of chronic kidney disease” (PLOS ONE, 2024).
Where a chain is given by its changes, count along the chain named.

B1: mBB7 (antibody, V domains shown)
VH: AVQLVESGGGLVKPGGSLKLSCAASGIIFSSSAMSWVRQTPEKRLEWVATISSGGRSTYYPDSVKGRFTVSRDSAKNTLYLQMDSLRSEDTAIYYCAKLISPYWGQGTTLTVSS
VL: AIKMTQSPSSMYASLGERVIITCKASQDINSYLTWFQQKPGKSPKTLIYLTNRLMDGVPSRFSGSGSGQEFLLTISGLEHEDMGIYYCLQYVDFPYTFGGGTKLEIK
B2: zampilimab (antibody, V domains shown)
VH: EVQLLESGGGLVQPGGSLRLSCAASGFTLSTHAMSWVRQAPGKGLEWVATISSGGRSTYYPDSVKGRFTISRDNSKNTLYLQMNSLRAEDTAVYFCARLISTYWGQGTLVTVSS
VL: DITMTQSPSSLSASVGDRVTITCKASQDINSYLTWFQQKPGKAPKILIYLVNRLVDGVPSRFSGSGSGQDYALTISSLQPEDFATYYCLQYDDFPYTFGQGTKVEIK
notes: humanized DC1 VH; DC1 CDRs grafted on the human framework AF062260 with back mutation of the 5 Å Proximity residues; human heavy chain constant region; humanized DC1 VK; DC1 CDRs grafted on the human framework AF193851 with back mutation of the 5 Å Proximity residues; The discussion speaks of zampilimab as an IgG4P antibody in the monkey study; also called hDC1; UCB7858; source: Expi293 cells, …
B3: hBB7 (antibody, V domains shown)
VH: B2 VH with F27I, T28I, L29F, T31S, H32S, I70V, N74S, F95Y, R98K, T102P
VL: B2 VL with T3K, I46T, V51T, V55M, D70E, Y71F, A72L, D92V
notes: humanized BB7 VH; BB7 CDRs grafted on the human framework AF062260 with back mutation of the 5 Å Proximity residues; human heavy chain constant region; humanized BB7 VK; BB7 CDRs grafted on the human framework AF193851 with back mutation of the 5 Å Proximity residues; also called humanized BB7; source: Expi293 cells, co-transfected heavy and kappa light chain vectors, purified from supernatant …
B4: mDC1 (antibody, V domains shown)
VH: EVQLVESGGGLVKPGGSLKLSCAASGFTLSTHAMSWVRQTPEKRLEWVATISSGGRSTYYPDSVKGRFTISRDNVKNTLYLQLSSLRSEDTAVYFCARLISTYWGQGTTLTVSS
VL: DITMTQSPSSIYASLGERVTITCKASQDINSYLTWFQQKPGKSPKILIYLVNRLVDGVPSRFSGSGSGQDYALTISSLEYEDMGIYYCLQYDDFPYTFGGGTKLEIK

What was measured:
[1] = biological target: zampilimab (human); assay: SPR; BIAcore T200; test antibody captured (~100-200 RU) by goat anti-human IgG Fc F(ab')2 immobilised on a CM5 chip; TG2 titrated over it at 100 nM to 6.25 nM, 600 s association, up to 3200 s dissociation; 10 mM HEPES pH 7.4, 0.15 M NaCl, 0.005% Surfactant P20, 2 mM CaCl2 (+Ca2+); 1:1 fit
[2] = biological target: zampilimab (human); assay: SPR; as the SPR with calcium (antibody captured by anti-human Fc, TG2 flowed over) but in the absence of calcium (-Ca2+); buffer of this condition not detailed
[3] = biological target: T1, human transglutaminase 2 (Homo sapiens, UniProt P21980)
[4] = biological target: T1, human transglutaminase 2; assay: cell-based or functional assay
[5] = biological target: rabbit transglutaminase 2 (Oryctolagus cuniculus (rabbit), UniProt A0A5F9DRZ3); assay: cell-based or functional assay
[6] = biological target: T1, human transglutaminase 2; assay: SPR; BIAcore T200; test antibody captured (~100-200 RU) by goat anti-human IgG Fc F(ab')2 immobilised on a CM5 chip; TG2 titrated over it at 100 nM to 6.25 nM, 600 s association, up to 3200 s dissociation; 10 mM HEPES pH 7.4, 0.15 M NaCl, 0.005% Surfactant P20, 2 mM CaCl2 (+Ca2+); 1:1 fit; conditions: both partners purified
[7] = biological target: T1, human transglutaminase 2; assay: SPR; as the SPR with calcium (antibody captured by anti-human Fc, TG2 flowed over) but in the absence of calcium (-Ca2+); buffer of this condition not detailed; conditions: both partners purified
[8] = biological target: T1, human transglutaminase 2; assay: cell-based or functional assay; remark: listed apart in the source
[9] = biological target: T2, TG2 (as used in the ELISA of the humanized antibodies) (Homo sapiens (assumed), UniProt P21980); assay: ELISA; ELISA of the humanized antibodies on TG2 and other TG family members; antibody up to 100 nM; format not described
T2 construct: transglutaminase 2 (TG2); also called transglutaminase 2

[10] = biological target: T3, TG1 (Homo sapiens (assumed), UniProt P22735); assay: as above
T3 construct: transglutaminase family member TG1; also called transglutaminase 1

[11] = biological target: T4, TG5 (Homo sapiens (assumed), UniProt O43548); assay: as above
T4 construct: transglutaminase family member TG5; also called transglutaminase 5

[12] = biological target: T5, TG7 (Homo sapiens (assumed), UniProt Q96PF1); assay: as above
T5 construct: transglutaminase family member TG7; also called transglutaminase 7

[13] = biological target: T6, TG3 (Homo sapiens (assumed), UniProt Q08188); assay: as above
T6 construct: transglutaminase family member TG3; also called transglutaminase 3

[14] = biological target: cynomolgus monkey transglutaminase 2 (cynomolgus monkey)
[15] = biological target: rabbit transglutaminase 2 (rabbit)

T1 sequence (P21980 whole entry): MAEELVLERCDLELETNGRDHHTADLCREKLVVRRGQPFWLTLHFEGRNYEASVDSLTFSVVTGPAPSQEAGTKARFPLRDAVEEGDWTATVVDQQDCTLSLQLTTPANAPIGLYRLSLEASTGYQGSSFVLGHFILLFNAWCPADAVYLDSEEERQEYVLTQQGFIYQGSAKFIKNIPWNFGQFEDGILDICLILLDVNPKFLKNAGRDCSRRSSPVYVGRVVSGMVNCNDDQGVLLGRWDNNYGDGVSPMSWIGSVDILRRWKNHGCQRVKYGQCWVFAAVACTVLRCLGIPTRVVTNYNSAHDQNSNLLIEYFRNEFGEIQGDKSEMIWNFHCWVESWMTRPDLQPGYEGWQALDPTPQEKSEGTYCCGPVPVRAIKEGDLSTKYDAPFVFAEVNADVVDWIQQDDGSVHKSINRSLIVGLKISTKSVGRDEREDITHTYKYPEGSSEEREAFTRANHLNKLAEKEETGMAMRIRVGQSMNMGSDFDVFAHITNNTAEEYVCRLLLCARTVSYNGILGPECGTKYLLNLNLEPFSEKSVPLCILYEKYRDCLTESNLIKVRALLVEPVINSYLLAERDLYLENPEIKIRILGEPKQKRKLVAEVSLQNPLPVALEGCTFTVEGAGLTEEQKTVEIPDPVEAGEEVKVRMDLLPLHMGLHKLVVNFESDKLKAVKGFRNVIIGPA
T3 sequence (P22735 whole entry): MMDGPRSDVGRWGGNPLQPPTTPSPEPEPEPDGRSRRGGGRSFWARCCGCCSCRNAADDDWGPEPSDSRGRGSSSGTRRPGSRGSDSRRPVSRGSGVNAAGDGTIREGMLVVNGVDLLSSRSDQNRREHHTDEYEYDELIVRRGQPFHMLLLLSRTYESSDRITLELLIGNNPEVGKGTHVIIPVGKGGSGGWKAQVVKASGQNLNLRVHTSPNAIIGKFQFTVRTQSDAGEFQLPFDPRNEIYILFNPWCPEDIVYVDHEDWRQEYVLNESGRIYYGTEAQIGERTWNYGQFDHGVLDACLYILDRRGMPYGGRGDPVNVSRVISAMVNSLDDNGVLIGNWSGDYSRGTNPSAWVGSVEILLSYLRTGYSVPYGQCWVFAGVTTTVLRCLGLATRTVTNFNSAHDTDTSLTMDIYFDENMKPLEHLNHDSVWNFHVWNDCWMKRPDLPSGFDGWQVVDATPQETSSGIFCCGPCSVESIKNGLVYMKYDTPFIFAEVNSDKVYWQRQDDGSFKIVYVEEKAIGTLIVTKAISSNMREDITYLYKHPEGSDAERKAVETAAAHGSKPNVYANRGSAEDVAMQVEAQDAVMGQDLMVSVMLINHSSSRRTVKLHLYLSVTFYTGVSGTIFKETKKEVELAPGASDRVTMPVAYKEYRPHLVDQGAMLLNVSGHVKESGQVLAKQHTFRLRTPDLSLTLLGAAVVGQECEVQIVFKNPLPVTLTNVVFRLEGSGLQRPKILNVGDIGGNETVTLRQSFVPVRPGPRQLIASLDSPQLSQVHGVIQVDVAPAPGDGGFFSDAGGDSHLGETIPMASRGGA
T2 sequence (P21980 whole entry): as the sequence (P21980 whole entry) above
T4 sequence (O43548 whole entry): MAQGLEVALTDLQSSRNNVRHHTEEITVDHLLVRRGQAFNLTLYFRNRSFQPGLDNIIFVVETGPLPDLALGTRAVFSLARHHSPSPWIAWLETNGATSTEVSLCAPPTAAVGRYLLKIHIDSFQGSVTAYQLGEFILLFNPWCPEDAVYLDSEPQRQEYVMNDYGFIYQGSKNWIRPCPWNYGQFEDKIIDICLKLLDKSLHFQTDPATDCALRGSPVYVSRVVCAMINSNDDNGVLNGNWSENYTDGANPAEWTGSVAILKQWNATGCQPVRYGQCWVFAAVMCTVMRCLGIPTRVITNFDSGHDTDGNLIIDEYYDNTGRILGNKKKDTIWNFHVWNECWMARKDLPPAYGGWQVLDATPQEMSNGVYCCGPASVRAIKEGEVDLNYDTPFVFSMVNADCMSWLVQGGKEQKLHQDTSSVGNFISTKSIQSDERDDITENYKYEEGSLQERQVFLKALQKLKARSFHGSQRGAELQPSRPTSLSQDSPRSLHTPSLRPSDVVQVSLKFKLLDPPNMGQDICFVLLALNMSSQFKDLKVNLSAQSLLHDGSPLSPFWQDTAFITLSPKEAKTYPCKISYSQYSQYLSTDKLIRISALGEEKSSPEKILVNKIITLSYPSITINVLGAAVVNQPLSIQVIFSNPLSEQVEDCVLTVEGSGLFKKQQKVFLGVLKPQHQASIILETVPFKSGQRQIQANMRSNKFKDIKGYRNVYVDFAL
T6 sequence (Q08188 whole entry): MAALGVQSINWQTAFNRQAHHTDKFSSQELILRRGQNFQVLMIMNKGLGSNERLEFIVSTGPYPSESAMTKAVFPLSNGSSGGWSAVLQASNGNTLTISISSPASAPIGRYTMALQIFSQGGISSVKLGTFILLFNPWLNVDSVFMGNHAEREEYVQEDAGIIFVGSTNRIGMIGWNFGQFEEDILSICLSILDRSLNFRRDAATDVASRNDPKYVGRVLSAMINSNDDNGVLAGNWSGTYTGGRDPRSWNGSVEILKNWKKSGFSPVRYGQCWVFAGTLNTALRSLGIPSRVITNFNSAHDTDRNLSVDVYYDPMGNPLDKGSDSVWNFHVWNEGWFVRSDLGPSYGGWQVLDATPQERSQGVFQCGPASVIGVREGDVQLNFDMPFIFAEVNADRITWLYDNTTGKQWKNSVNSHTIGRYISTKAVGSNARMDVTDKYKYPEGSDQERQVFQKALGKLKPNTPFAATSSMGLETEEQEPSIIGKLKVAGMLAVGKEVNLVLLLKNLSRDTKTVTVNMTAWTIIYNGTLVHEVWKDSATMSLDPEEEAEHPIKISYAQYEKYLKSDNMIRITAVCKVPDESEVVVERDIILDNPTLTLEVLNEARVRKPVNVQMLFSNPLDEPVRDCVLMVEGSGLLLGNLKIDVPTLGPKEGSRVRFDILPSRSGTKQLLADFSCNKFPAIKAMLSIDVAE
T5 sequence (Q96PF1 whole entry): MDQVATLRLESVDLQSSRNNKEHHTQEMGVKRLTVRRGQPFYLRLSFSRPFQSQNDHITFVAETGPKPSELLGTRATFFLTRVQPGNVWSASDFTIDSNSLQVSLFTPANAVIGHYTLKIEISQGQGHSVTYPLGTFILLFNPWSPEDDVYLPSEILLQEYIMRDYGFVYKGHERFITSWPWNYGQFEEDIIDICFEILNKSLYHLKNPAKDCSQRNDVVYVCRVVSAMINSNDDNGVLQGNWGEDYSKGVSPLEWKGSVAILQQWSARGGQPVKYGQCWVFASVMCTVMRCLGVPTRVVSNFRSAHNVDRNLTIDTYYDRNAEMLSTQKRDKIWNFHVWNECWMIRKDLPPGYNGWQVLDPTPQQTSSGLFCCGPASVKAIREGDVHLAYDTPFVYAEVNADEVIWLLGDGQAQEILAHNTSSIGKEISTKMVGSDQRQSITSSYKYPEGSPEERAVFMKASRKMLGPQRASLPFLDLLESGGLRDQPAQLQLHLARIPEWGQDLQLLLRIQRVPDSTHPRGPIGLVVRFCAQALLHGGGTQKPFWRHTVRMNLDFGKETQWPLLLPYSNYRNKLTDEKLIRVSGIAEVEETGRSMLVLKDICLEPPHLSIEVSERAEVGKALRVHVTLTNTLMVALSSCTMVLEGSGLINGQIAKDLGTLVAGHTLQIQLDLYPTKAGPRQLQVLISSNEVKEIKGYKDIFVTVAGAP

Row | Molecule | binding result [3] | IC50 of inhibition of TG2 activity (KxD assay on recombinant protein by the text; biotin cadaverine incorporation by the table's footnote) [4] | Kd [6] | EC50 [9] | binding result [10] | binding result [11] | binding result [12] | binding result [13] | IC50 of inhibition of TG2 activity (KxD assay on recombinant protein by the text; biotin cadaverine incorporation by the table's footnote) [14] | also measured
1 | cynomolgus monkey transglutaminase 2 (enzyme) | – | – | – | – | – | – | – | – | – | Kd [1]: < 0.037 nM; Kd [2]: < 0.05 nM
2 | B1 | binds | – | – | – | – | – | – | – | – | –
3 | B2 | – | 0.25 nM | < 0.05 nM | ~0.02 nM | no binding (tested: 100 nM) | no binding (tested: 100 nM) | no binding (tested: 100 nM) | no binding (tested: 100 nM) | 0.22 nM | IC50 of inhibition of TG2 activity (KxD assay on recombinant protein by the text; biotin cadaverine incorporation by the table's footnote) [5]: 103 nM; Kd [7]: < 0.107 nM; IC50 of inhibition of extracellular TG activity (biotin cadaverine incorporation) in primary human RPTEC induced with TGF-β1, four independent studies [8]: 119 nM
4 | B3 | – | 0.28 nM | < 0.06 nM | ~0.02 nM | no binding (tested: 100 nM) | no binding (tested: 100 nM) | no binding (tested: 100 nM) | no binding (tested: 100 nM) | 0.25 nM | IC50 of inhibition of TG2 activity (KxD assay on recombinant protein by the text; biotin cadaverine incorporation by the table's footnote) [15]: 6.59 nM
5 | B4 | binds | – | – | – | – | – | – | – | – | –
